Results reported in patent US9540654B2, “Synthetic brassica-derived chloroplast transit peptides” (Dow AgroSciences LLC, priority 2012, dated 2017).

Tests used:
[1] = tested on: Cry1Ac, Cry1Ca, Cry1F proteins; experiment: Protein expression of stacked TraP12 cry1Ac, cry1Ca, cry1F in Arabidopsis (Western blotting, ELISA); design: species or system Arabidopsis thaliana
Description: The TraP12 chimeric transit peptide was fused to the 5′ end of cry1Ac, cry1Ca, and cry1F gene sequences which were stacked in multi PTU plasmid constructs to determine whether the TraP12 chimeric transit peptide enhanced or reduced expression of the proteins within Arabidopsis.
The constructs listed in Table 35 were assembled using art recognized methods. The constructs were subsequently transformed into Arabidopsis thaliana using the Agrobacterium mediated transformation protocol previously described. Transgenic Arabidopsis plants were obtained and protein expression was determined via Western blotting and ELISA assays.

[2] = tested on: chloroplasts of the maize protoplast; experiment: Maize protoplast transient assay, microscopy of TraP12-YFP; format: cell-based, Zea mays var. B104; conditions: maize protoplasts, 12 hours after transfection
Description: The Trap12 chimeric chloroplast transit peptide-encoding polynucleotide sequence (SEQ ID NO:5) and the linker sequence (SEQ ID NO:10) were cloned upstream of the yellow fluorescent protein gene and incorporated into construct for testing via the maize protoplast transient in planta assay. The resulting construct contained the following plant transcription unit (PTU). The first PTU was comprised of the Zea mays Ubiquitin 1 promoter (ZmUbi1 promoter; Christensen, A., Sharrock R., and Quail P., (1992) Maize polyubiquitin genes: structure, thermal perturbation of expression and transcript splicing, and promoter activity following transfer to protoplasts by electroporation, Plant Molecular Biology, 18:675-689), Trap yellow fluorescent protein fusion gene (TraP12-YFP; US Patent App. 2007/0298412), and Zea mays Peroxidase 5 3′ untranslated region (ZmPer5 3′UTR; U.S. Pat. No. 6,384,207). The construct was confirmed via restriction enzyme digestion and sequencing.
Seed of Zea mays var. B104 were surface sterilized by shaking vigorously in 50% Clorox (3% sodium hypochlorite), containing 2-3 drops of Tween 20, for about 20 minutes. […]
Transfection of 100 to 500 μl of protoplasts (1-5×10^5) was completed by adding the protoplasts to a 2 ml microfuge tube containing about 40 μg of plasmid DNA (pDAB106597), at room temperature. […] Fluorescence of YFP was viewed by microscopy after 12 hours of incubation. […]

[3] = tested on: chloroplasts of the tobacco leaf tissue; experiment: Tobacco transient assay, confocal microscopy of TraP-YFP; format: cell-based, Nicotiana benthamiana; conditions: Agrobacterium-infiltrated tobacco leaves
Description: The Trap12 and TraP13 chimeric chloroplast transit peptide sequences were initially tested via a transient in planta assay. Polynucleotide sequences which encode the Trap12 (SEQ ID NO:5) and TraP13 (SEQ ID NO:7) chimeric chloroplast transit peptide sequences were synthesized. A linker sequence (SEQ ID NO:10) was incorporated between the TraP sequence and the yfp coding sequence. The resulting constructs contained two plant transcription units (PTU). The first PTU was comprised of the Arabidopsis thaliana Ubiquitin 10 promoter (AtUbi10 promoter; Callis, et al., (1990) J. Biol. Chem., 265: 12486-12493), Trap yellow fluorescent protein fusion gene (TraP-YFP; US Patent App. 2007/0298412), and Agrobacterium tumefaciens ORF 23 3′ untranslated region (AtuORF23 3′UTR; U.S. Pat. No. 5,428,147). […]
Agrobacterium-infiltrated tobacco leaves were severed from the plant, and placed into a petri-dish with water to prevent dehydration. The infiltrated tobacco leaves were observed under blue light excitation with long-pass filter glasses held in place using a Dark Reader Hand Lamp™ (Clare Chemical Research Co.; Dolores, Colo.) to identify undamaged areas of the leaf that were successfully expressing the YFP reporter proteins. […]

B1: TraP12: chimeric chloroplast transit peptide SEQ ID NO:6, N-terminus from Brassica napus, C-terminus from Arabidopsis thaliana EPSPS (protein)
chain: MAQSSRICHGVQNPCVIISNLSKSNQNKSPFSVSLKTHQHPRAYPISSSWGLKKSGMTLIGSELRPLKVMSSVS
modifications: TraP12 chloroplast transit peptide
For B1, the “translocation of expressed proteins (Western blots)” value [1] was “directed the expressed proteins into the chloroplasts”, the “localization of YFP fluorescent protein (microscopy imaging)” value [2] was “accumulated within the chloroplasts” and the “localization of YFP fluorescence signal (microscopy imaging)” value [3] was “accumulated within the chloroplasts”.
